Source: article PMC2666983

Biological target: T1, Ci-FoxA-a (Ci-Fkh/HNF-3beta) (Ciona intestinalis, UniProt Q4H3J7 131-225)
T1 sequence: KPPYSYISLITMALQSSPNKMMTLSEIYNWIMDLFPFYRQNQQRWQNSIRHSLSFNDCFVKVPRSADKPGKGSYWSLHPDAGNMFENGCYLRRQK
Assay: competition

B1: 27-52 Fox (distal) (dsDNA)
DNA 1: CTACACCCATATTTGAAGACCAAA
DNA 2: TTTGGTCTTCAAATATGGGTGTAG
  binding result: binds
